# Data from US20030125296.
# Legend:
# [1] = system: E. coli-expressed NFκB p50
# [2] = system: T1, RPRAATF substrate of glycogen synthase kinase 3β
# T1 sequence: RPRAATF
# [3] = system: Thioredoxin (Trx) alone, expressed in E. coli from a pET32 vector [thioredoxin: P0AA25]
# [4] = system: Trx-IRDBP-1 fusion protein (His6-tagged thioredoxin fusion of the 1503 bp coding region of the cDNA SEQ ID NO: 44)
# [5] = system: IRDBP-1 expressed from pCR IRDBP-1 in transfected COS 7 cells
# Chain of IRDBP-1 expressed from pCR IRDBP-1 in transfected COS 7 cells (chain, as listed by the source): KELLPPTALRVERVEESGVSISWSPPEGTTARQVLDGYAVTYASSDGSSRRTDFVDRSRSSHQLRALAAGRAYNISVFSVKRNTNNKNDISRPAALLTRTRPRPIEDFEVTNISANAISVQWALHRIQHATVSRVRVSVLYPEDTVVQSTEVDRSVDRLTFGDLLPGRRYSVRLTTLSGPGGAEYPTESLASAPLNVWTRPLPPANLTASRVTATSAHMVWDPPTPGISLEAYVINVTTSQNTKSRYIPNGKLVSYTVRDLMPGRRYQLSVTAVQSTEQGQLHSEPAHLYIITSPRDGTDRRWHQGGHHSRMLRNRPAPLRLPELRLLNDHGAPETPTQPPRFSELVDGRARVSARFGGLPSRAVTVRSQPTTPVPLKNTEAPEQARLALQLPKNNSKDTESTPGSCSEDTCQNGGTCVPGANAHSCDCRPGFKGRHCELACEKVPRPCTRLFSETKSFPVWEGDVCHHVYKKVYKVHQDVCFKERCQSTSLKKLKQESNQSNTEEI
# Chain of Trx-IRDBP-1 fusion protein (His6-tagged thioredoxin fusion of the 1503 bp coding region of the cDNA SEQ ID NO: 44) (chain, as listed by the source): as above
# Chain of Thioredoxin (Trx) alone, expressed in E. coli from a pET32 vector [thioredoxin: P0AA25] (P0AA25 whole entry, the tested form may be a part): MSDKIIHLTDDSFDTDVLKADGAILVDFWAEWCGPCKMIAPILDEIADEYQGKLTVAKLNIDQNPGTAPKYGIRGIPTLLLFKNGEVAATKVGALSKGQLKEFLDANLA
Substance,"in vitro phosphorylation with [γ-32P] ATP, SDS-PAGE [1]",in vitro phosphorylation with [γ-32P] ATP [2],"in vitro phosphorylation with [γ-32P] ATP, SDS-PAGE [3]","in vitro phosphorylation with [γ-32P] ATP, SDS-PAGE [4]",IRDBP-1-induced IRE transcription [5],IRDBP-1-induced IRE activity (IRE-mediated transcription) [5]
"Akt (endogenous, COS 7 cells)","Akt and Erk did not phosphorylate the controls of Trx alone, and the p50 subunit of NFκB","Akt phosphorylated the RPRAATF substrate of glycogen synthase kinase 3β, used as a positive control","Akt and Erk did not phosphorylate the controls of Trx alone, and the p50 subunit of NFκB",Akt and Erk Trx-IRDBP-1 were capable of phosphorylating Trx-IRDBP-1,–,–
"Erk2 (pUSEamp expression vector, cotransfected)",–,–,–,–,Erk2 decreased IRDBP-1-induced IRE transcription by 45±4% (lane 5 vs. lane 3),–
"Erk (Erk1/2; endogenous, COS 7 cells)","Akt and Erk did not phosphorylate the controls of Trx alone, and the p50 subunit of NFκB",–,"Akt and Erk did not phosphorylate the controls of Trx alone, and the p50 subunit of NFκB",Akt and Erk Trx-IRDBP-1 were capable of phosphorylating Trx-IRDBP-1,–,–
"wild-type Akt1 (pUSEamp expression vector, cotransfected)",–,–,–,–,–,"Wild-type Akt1 expression, like Akt myr, stimulated IRDBP-1-induced IRE activity to the same extent as the addition of insulin (lane 7 vs. lane 4)"
